Numbered stars: 1 amine (or outer) side, 2 acyl side, 3 side chain; on linkers, the order of the positions; unused ones are H or OH. Square brackets hold non-standard residues; d marks the D form. Phe(3R-OH) = O=C([C@@H](N[*:1])[C@H](O[*:3])c1ccccc1)[*:2]; Arg(Me) = CNC(=N)NCCC[C@H](N)C(=O)O; Hyp = O=C(O)[C@@H]1C[C@@H](O)CN1; azaGly = NNC(=O)O

The results in this text go back to patent US20090105152A1.

The test concerns the target human OT7T175 (metastin receptor) (human) (UniProt Q969F8). The experiment in a line: cell-based or functional assay.

human OT7T175 (metastin receptor) (human), sequence (Q969F8 whole entry L364H): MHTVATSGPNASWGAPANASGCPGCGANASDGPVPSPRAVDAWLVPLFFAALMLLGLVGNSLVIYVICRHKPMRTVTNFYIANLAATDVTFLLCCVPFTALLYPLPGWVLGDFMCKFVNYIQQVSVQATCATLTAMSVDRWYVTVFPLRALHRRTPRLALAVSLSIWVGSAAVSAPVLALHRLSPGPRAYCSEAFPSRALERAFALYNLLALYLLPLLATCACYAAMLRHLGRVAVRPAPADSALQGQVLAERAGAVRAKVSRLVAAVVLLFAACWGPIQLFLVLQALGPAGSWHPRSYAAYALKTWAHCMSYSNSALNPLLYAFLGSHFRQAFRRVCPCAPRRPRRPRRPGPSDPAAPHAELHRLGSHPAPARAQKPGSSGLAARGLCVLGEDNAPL

B1: des(1)-Ac-[D-Tyr2,Hyp3,Thr5,threo-Ser(3Phenyl)6,AzaGly7,Arg(Me)9,Trp10]MS10 (peptide)
peptide: Ac-[dY][Hyp]NT[Phe(3R-OH)][azaGly]L[Arg(Me)]W-NH2
SMILES: CNC(=N)NCCC[C@H](NC(=O)[C@H](CC(C)C)NC(=O)NNC(=O)[C@@H](NC(=O)[C@@H](NC(=O)[C@H](CC(N)=O)NC(=O)[C@@H]1C[C@@H](O)CN1C(=O)[C@@H](Cc1ccc(O)cc1)NC(C)=O)[C@@H](C)O)[C@H](O)c1ccccc1)C(=O)N[C@@H](Cc1c[nH]c2ccccc12)C(N)=O
The molecule B1 came in with an intracellular Ca ion level-increasing activity [specific activity to Metastin (1-54)] (relative to Metastin (1-54)) of 1.
